Measurements taken from article PMC4091835 (Nature structural & molecular biology, 2014).

B1: Human Cdc42 residues 1–178, constitutively active mutant G12V (domain or fragment)
chain: not shown
B3: Full-length human IRSp53 (natural protein, UniProt Q9UQB8-4 1-521, looked up)
chain: MSLSRSEEMHRLTENVYKTIMEQFNPSLRNFIAMGKNYEKALAGVTYAAKGYFDALVKMGELASESQGSKELGDVLFQMAEVHRQIQNQLEEMLKSFHNELLTQLEQKVELDSRYLSAALKKYQTEQRSKGDALDKCQAELKKLRKKSQGSKNPQKYSDKELQYIDAISNKQGELENYVSDGYKTALTEERRRFCFLVEKQCAVAKNSAAYHSKGKELLAQKLPLWQQACADPSKIPERAVQLMQQVASNGATLPSALSASKSNLVISDPIPGAKPLPVPPELAPFVGRMSAQESTPIMNGVTGPDGEDYSPWADRKAAQPKSLSPPQSQSKLSDSYSNTLPVRKSVTPKNSYATTENKTLPRSSSMAAGLERNGRMRVKAIFSHAAGDNSTLLSFKEGDLITLLVPEARDGWHYGESEKTKMRGWFPFSYTRVLDSDGSDRLHMSLQQGKSSSTGNLLDKDDLAIPPPDYGAASRAFPAQTASGFKQRPYSVAVPAFSQGLDDYGARSMSSGSGTLVSTV
B4: CRIB–PR domain of IRSp53 (residues 260–291), synthetic peptide (peptide, UniProt Q9UQB8-4 260-291, looked up)
peptide: Ac-ASKSNLVISDPIPGAKPLPVPPELAPFVGRMS-NH2

Legend:
[1] = target: B4; assay: ITC
Full-length human IRSp53 [2] = target: B3; assay: ITC
Full-length human IRSp53 [3] = target: B3; assay: SEC + other: glycerol gradient sedimentation
[4] = target: the molecule itself; assay: SEC + other: glycerol gradient sedimentation
[5] = target: B1; assay: ITC
[6] = target: B4; assay: ITC

## B1
[1]
  stoichiometry N: 1 Cdc42 per CRIB–PR
Full-length human IRSp53 [2]
  Kd: 16.1 µM
  fold reduction of the enthalpy of binding against CRIB–PR: 3 fold
  stoichiometry N: 1 Cdc42 per CRIB–PR

B2: Human Eps8 (natural protein, UniProt Q12929 1-822, looked up)
chain: MNGHISNHPSSFGMYPSQMNGYGSSPTFSQTDREHGSKTSAKALYEQRKNYARDSVSSVSDISQYRVEHLTTFVLDRKDAMITVDDGIRKLKLLDAKGKVWTQDMILQVDDRAVSLIDLESKNELENFPLNTIQHCQAVMHSCSYDSVLALVCKEPTQNKPDLHLFQCDEVKANLISEDIESAISDSKGGKQKRRPDALRMISNADPSIPPPPRAPAPAPPGTVTQVDVRSRVAAWSAWAADQGDFEKPRQYHEQEETPEMMAARIDRDVQILNHILDDIEFFITKLQKAAEAFSELSKRKKNKKGKRKGPGEGVLTLRAKPPPPDEFLDCFQKFKHGFNLLAKLKSHIQNPSAADLVHFLFTPLNMVVQATGGPELASSVLSPLLNKDTIDFLNYTVNGDERQLWMSLGGTWMKARAEWPKEQFIPPYVPRFRNGWEPPMLNFMGATMEQDLYQLAESVANVAEHQRKQEIKRLSTEHSSVSEYHPADGYAFSSNIYTRGSHLDQGEAAVAFKPTSNRHIDRNYEPLKTQPKKYAKSKYDFVARNNSELSVLKDDILEILDDRKQWWKVRNASGDSGFVPNNILDIVRPPESGLGRADPPYTHTIQKQRMEYGPRPADTPPAPSPPPTPAPVPVPLPPSTPAPVPVSKVPANITRQNSSSSDSGGSIVRDSQRHKQLPVDRRKSQMEEVQDELIHRLTIGRSAAQKKFHVPRQNVPVINITYDSTPEDVKTWLQSKGFNPVTVNSLGVLNGAQLFSLNKDELRTVCPEGARVYSQITVQKAALEDSSGSSELQEIMRRRQEKISAAASDSGVESFDEGSSH
Full-length human IRSp53 [3]
  stoichiometry N: 1 Eps8 per IRSp53 (2:2)

## B3
[4]
  stoichiometry N: 2

## B4
[5]
  Kd: 5 µM

B5: Isolated SH3 domain of IRSp53 (domain or fragment)
chain: NGRMRVKAIFSHAAGDNSTLLSFKEGDLITLLVPEARDGWHYGESEKTKMRGWFPFSYTRVLDS
[6]
  Kd: 114 µM
